Targets include recombinant human GM-CSF (human, UniProt P04141 18-144); αPD-1; αSLAM; Strep-tactin.
Assay in all cases: ELISA
A general note: ELISA stands for enzyme-linked immunosorbent assay.

Sequence of recombinant human GM-CSF (P04141 18-144): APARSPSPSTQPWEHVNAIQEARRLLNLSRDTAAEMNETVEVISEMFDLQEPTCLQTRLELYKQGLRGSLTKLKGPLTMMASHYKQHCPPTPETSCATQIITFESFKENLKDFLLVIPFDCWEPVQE

B1: C6b (antibody)
heavy: not shown
light: EIVLTQSPGTLSLSPGETAILSCRASQSVSSSLLAWYQQKPGQAPRLLIYGASNRATGIRGRFSGSGSGTDFTLTISRLEPEDFVLYYCQHYGSRVTFGQGTKLEIKRTVAAPSVFIFPPSDEQLKSGTASVVCLLNNFYPREAKVQWKVDNALQSGNSQESVTEQDSKDSTYSLSSTLTLSKADYEKHKVYACEVTHQGLSSPVTKSFNRGEC
Regarding B1, the EC50 is 0.0324 µg/mL with recombinant human GM-CSF, approximately 1350 µg/mL in the assay with αPD-1 and 0.0885 µg/mL with αSLAM.

B2: C5b (antibody)
heavy: not shown
light: EIVLTQSPGTLSLSPGETAILSCRASQSVSSSLLAWYQQKPGQAPRLLIYGASNRATGIRGRFSGSGSGTDFTLTISRLEPEDFVLYYCQHYGSRVTFGQGTKLEIKRTVAAPSVFIFPPSDEQLKSGTASVVCLLNNFYPREAKVQWKVDNALQSGNSQESVTEQDSKDSTYSLSSTLTLSKADYEKHKVYACEVTHQGLSSPVTKSFNRGEC
For B2, the EC50 with recombinant human GM-CSF is 0.0355 µg/mL; with αPD-1, 0.0371 µg/mL; with αSLAM, approximately 397 µg/mL.

B3: C6 (antibody)
heavy: not shown
light: EIVLTQSPGTLSLSPGETAILSCRASQSVSSSLLAWYQQKPGQAPRLLIYGASNRATGIRGRFSGSGSGTDFTLTISRLEPEDFVLYYCQHYGSRVTFGQGTKLEIKRTVAAPSVFIFPPSDEQLKSGTASVVCLLNNFYPREAKVQWKVDNALQSGNSQESVTEQDSKDSTYSLSSTLTLSKADYEKHKVYACEVTHQGLSSPVTKSFNRGEC
B3: the concentration for a half-maximal effect (EC50) is approximately 743 µg/mL with αPD-1 and 0.0958 µg/mL with αSLAM.

B4: GCE536 (antibody)
heavy: not shown
light: EIVLTQSPGTLSLSPGETAILSCRASQSVSSSLLAWYQQKPGQAPRLLIYGASNRATGIRGRFSGSGSGTDFTLTISRLEPEDFVLYYCQHYGSRVTFGQGTKLEIKRTVAAPSVFIFPPSDEQLKSGTASVVCLLNNFYPREAKVQWKVDNALQSGNSQESVTEQDSKDSTYSLSSTLTLSKADYEKHKVYACEVTHQGLSSPVTKSFNRGEC
On to B4, for which the 50% effective concentration (EC50) with recombinant human GM-CSF stood at 0.0492 µg/mL.

B5: C5 (antibody)
heavy: not shown
light: EIVLTQSPGTLSLSPGETAILSCRASQSVSSSLLAWYQQKPGQAPRLLIYGASNRATGIRGRFSGSGSGTDFTLTISRLEPEDFVLYYCQHYGSRVTFGQGTKLEIKRTVAAPSVFIFPPSDEQLKSGTASVVCLLNNFYPREAKVQWKVDNALQSGNSQESVTEQDSKDSTYSLSSTLTLSKADYEKHKVYACEVTHQGLSSPVTKSFNRGEC
In the case of B5, the EC50 was 0.0515 µg/mL with recombinant human GM-CSF, 0.0585 µg/mL in the assay with αPD-1 and approximately 632 µg/mL in the assay with αSLAM.

B6: C9 (antibody, V domains shown)
VH: DVQLVESGGGVVRPGVSLRLSCVASGFSFKNYDMAWVRQVPGKGLEWVCGINWNGSLRGYADSVKGRFLISRDHAKDSLYLQMSRLRAEDTALYYCARDPGYNTGRDHPYDLWGQGTMVTVSS
VL: DIQMTQSPSTLSASVGDRVTITCRASQSISSWLAWYQQKPGKAPKLLIYKASSLGSGVPSRFSGSGSGTQFTLTISSLQPDDFATYYCQQYNNYPYTFGQGTKLEIKR
Consider B6, for which the concentration giving a half-maximal response (EC50) in the assay with Strep-tactin was 0.187 µg/mL.

The term EC50 denotes the concentration at which the effect is half-maximal.

Values taken from US20200325220A1 (published 2020).
